Our source for the Kd values is US20140105889A1 (published 2014).

For assay [1], the target named is T1, human FcRn (human).
T1 construct: Soluble human FcRn complexed with β2-microglobulin; also called hFcRn; soluble human FcRn complexed with β2-microglobulin
Description: SPR (Biacore), antibody captured by Protein L, human FcRn as analyte, pH 7.0. On the technique in general: SPR reads the build-up and loss of mass on a sensor chip optically.

Assay [2] addresses T1, human FcRn. The description is as above. The source holds these as a separate data set.
Assay [3] concerns the target T2, human FcRn (soluble human FcRn complexed with β2-microglobulin) (human, UniProt P61769 21-119).
T2 construct: also called hFcRn
Description: SPR (Biacore), Protein L capture, hFcRn analyte, pH 7.0.

Assay [4] concerns the target T3, human FcRn (human).
T3 construct: also called hFcRn; soluble human FcRn complexed with β2-microglobulin
Description: SPR (Biacore), pH 7.0, 25 C, antibody captured by Protein L, human FcRn as analyte.

Assay [5] deals with T4, human FcRn (soluble human FcRn complexed with beta2-microglobulin) (human, UniProt P61769 21-119).
T4 construct: also called hFcRn
T4 sequence (chain, as listed by the source limits assumed, chain 1 of 2): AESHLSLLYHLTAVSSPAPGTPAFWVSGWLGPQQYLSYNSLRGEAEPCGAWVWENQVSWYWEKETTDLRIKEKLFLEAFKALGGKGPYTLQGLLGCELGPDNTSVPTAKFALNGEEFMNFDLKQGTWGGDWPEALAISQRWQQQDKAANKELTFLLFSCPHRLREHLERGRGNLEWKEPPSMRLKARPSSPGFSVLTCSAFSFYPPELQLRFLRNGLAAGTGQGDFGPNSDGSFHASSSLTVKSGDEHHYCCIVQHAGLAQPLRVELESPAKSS
T4 sequence (P61769 21-119 limits assumed, chain 2 of 2): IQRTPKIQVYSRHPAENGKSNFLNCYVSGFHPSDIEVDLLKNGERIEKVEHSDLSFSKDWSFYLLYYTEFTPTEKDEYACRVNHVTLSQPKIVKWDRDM
The assay is described as above.

T2 sequence (chain, as listed by the source limits assumed, chain 1 of 2): as the sequence (chain, as listed by the source limits assumed, chain 1 of 2) above
T2 sequence (P61769 21-119 limits assumed, chain 2 of 2): as the sequence (P61769 21-119 limits assumed, chain 2 of 2) above

B1: IgG1-F1288 (antibody, name in EU numbering)
heavy: QVQLQESGPGLVKPSETLSLTCAVSGHSISHDHAWSWVRQPPGEGLEWIGFISYSGITNYNPSLQGRVTISRDNSKNTLYLQMNSLRAEDTAVYYCARSLARTTAMDYWGEGTLVTVSSASTKGPSVFPLAPSSKSTSGGTAALGCLVKDYFPEPVTVSWNSGALTSGVHTFPAVLQSSGLYSLSSVVTVPSSSLGTQTYICNVNHKPSNTKVDKKVEPKSCDKTHTCPPCPAPELRGGPKVFLFPPKPKDTLYISREPEVTCVVVDVSHEDPEVKFNWYVDGVEVHNAKTKPREEQYNSTYRVVSVLTVLHQDWLNGKEYKCKVSNKALPAPIEKTISKAKGQPREPQVYTLPPSRDELTKNQVSLTCLVKGFYPSDIAVEWESNGQPENNYKTTPPVLDSDGSFFLYSKLTVDKSRWQQGNVFSCSVMHEALHYHVTKKDLSLSP
light: not shown
notes: light chain L(WT)-CK; copies: 2 + 2
As a reminder, the Kd is the free concentration of one partner at which half of the binding sites on the other are occupied at equilibrium, for simple one-to-one binding. High values mean weaker binding, low ones tighter binding. In assay [1], B1 displayed a Kd of 79.5 nM.

B2: IgG1-F1311 (antibody, name in EU numbering)
heavy: QVQLQESGPGLVKPSETLSLTCAVSGHSISHDHAWSWVRQPPGEGLEWIGFISYSGITNYNPSLQGRVTISRDNSKNTLYLQMNSLRAEDTAVYYCARSLARTTAMDYWGEGTLVTVSSASTKGPSVFPLAPSSKSTSGGTAALGCLVKDYFPEPVTVSWNSGALTSGVHTFPAVLQSSGLYSLSSVVTVPSSSLGTQTYICNVNHKPSNTKVDKKVEPKSCDKTHTCPPCPAPELRGGPKVFLFPPKPKDTLYISRTPEVTCVVVDVSHEDPEVKFNWYVDGVEVHNAKTKPREEQYNSTYRVVSVLTVLHQDWLNGKEYKCKVSNKALPAPIEKTISKAKGQPREPQVYTLPPSRDELTKNQVSLTCLVKGFYPSDIAVEWESNGQPENNYKTTPPVLDSDGSFFLYSKLTVDKSRWQQGNAFACSVMHEALDYHVTQKSLSLSP
light: not shown
notes: as for B1
In assay [1], B2 gave a dissociation constant (Kd) of 169 nM. This Kd is about 2.1-fold higher than that of the molecule before.

B3: IgG1-F1335 (antibody, name in EU numbering)
heavy: QVQLQESGPGLVKPSETLSLTCAVSGHSISHDHAWSWVRQPPGEGLEWIGFISYSGITNYNPSLQGRVTISRDNSKNTLYLQMNSLRAEDTAVYYCARSLARTTAMDYWGEGTLVTVSSASTKGPSVFPLAPSSKSTSGGTAALGCLVKDYFPEPVTVSWNSGALTSGVHTFPAVLQSSGLYSLSSVVTVPSSSLGTQTYICNVNHKPSNTKVDKKVEPKSCDKTHTCPPCPAPELRRGPKVFLFPPKPKDTLYITRTPEVTCVVVDVSHEDPEVKFNWYVDGVEVHNAKTKPREEQYNSTYRVVSVLTVLHQDWLNGKEYKCKVSNKALPAPIEKTISKAKGQPREPQVYTLPPSRDELTKNQVSLTCLVKGFYPSDIAVEWESNGQPENNYKTTPPVLDSDGSFFLYSKLTVDKSRWQQGNVFSCSVMHEALHYHVTKKDLSLSP
light: not shown
notes: as for B1
As for B3, the affinity in assay [2], expressed as Kd, was 87.8 nM.

B4: IgG1-F1289 (antibody, name in EU numbering)
heavy: QVQLQESGPGLVKPSETLSLTCAVSGHSISHDHAWSWVRQPPGEGLEWIGFISYSGITNYNPSLQGRVTISRDNSKNTLYLQMNSLRAEDTAVYYCARSLARTTAMDYWGEGTLVTVSSASTKGPSVFPLAPSSKSTSGGTAALGCLVKDYFPEPVTVSWNSGALTSGVHTFPAVLQSSGLYSLSSVVTVPSSSLGTQTYICNVNHKPSNTKVDKKVEPKSCDKTHTCPPCPAPELRGGPKVFLFPPKPKDTLYISREPEVTCVVVDVSHEDPEVKFNWYVDGVEVHNAKTKPREEQYNSTYRVVSVLTVLHQDWLNGKEYKCKVSNKALPAPIEKTISKAKGQPREPQVYTLPPSRDELTKNQVSLTCLVKGFYPSDIAVEWESNGQPENNYKTTPPVLDSDGSFFLYSKLTVDKSRWQQGNVFSCSVMHEALDYHVTRKELSLSP
light: not shown
notes: as for B1
In assay [1], B4 had a dissociation constant Kd of 133 nM.

B5: IgG1-F527 (antibody, name in EU numbering)
heavy: QVQLQESGPGLVKPSETLSLTCAVSGHSISHDHAWSWVRQPPGEGLEWIGFISYSGITNYNPSLQGRVTISRDNSKNTLYLQMNSLRAEDTAVYYCARSLARTTAMDYWGEGTLVTVSSASTKGPSVFPLAPSSKSTSGGTAALGCLVKDYFPEPVTVSWNSGALTSGVHTFPAVLQSSGLYSLSSVVTVPSSSLGTQTYICNVNHKPSNTKVDKKVEPKSCDKTHTCPPCPAPELLGGPSVFLFPPKPKDTLMISRTVEVTCVVVDVSHEDPEVKFNWYVDGVEVHNAKTKPREEQYNSTYRVVSVLQPLHQDWLNGKEYKCKVSGKALPAPIEKTISKAKGQPREPQVYTLPPSRDELTKNQVSLTCLVKGFYPSDIAVEWESNGQPENNYKTTPPVLDSDGSFFLYSKLTVDKSRWQQGNVFSCSVYHEALHYHYTQKSLSLSP
light: not shown
notes: copies: 2 + 2
In assay [3], B5 returned a Kd of 9.4 nM.

B6: F1211 (antibody, human IgG1, kappa, name in EU numbering)
heavy: QVQLQESGPGLVKPSETLSLTCAVSGHSISHDHAWSWVRQPPGEGLEWIGFISYSGITNYNPSLQGRVTISRDNSKNTLYLQMNSLRAEDTAVYYCARSLARTTAMDYWGEGTLVTVSSASTKGPSVFPLAPSSKSTSGGTAALGCLVKDYFPEPVTVSWNSGALTSGVHTFPAVLQSSGLYSLSSVVTVPSSSLGTQTYICNVNHKPSNTKVDKKVEPKSCDKTHTCPPCPAPELLGGPSVFLFPPKPKDTHYISRTPEVTCVVVDVSHEDPEVKFNWYVDGVEVHNAKTKPREEQYNSTYRVVSVLTVLHQDWLNGKEYKCKVSNKALPAPIEKTISKAKGQPREPQVYTLPPSRDELTKNQVSLTCLVKGFYPSDIAVEWESNGQPENNYKTTPPVLDSDGSFFLYSKLTVDKSRWQQGNVFSCSVMHEALHYHVTQKSLSLSP
light: not shown
notes: copies: 2 + 2
B6 came in with a Kd in assay [4] of 1230 nM.

B7: IgG1-F529 (antibody, name in EU numbering)
heavy: QVQLQESGPGLVKPSETLSLTCAVSGHSISHDHAWSWVRQPPGEGLEWIGFISYSGITNYNPSLQGRVTISRDNSKNTLYLQMNSLRAEDTAVYYCARSLARTTAMDYWGEGTLVTVSSASTKGPSVFPLAPSSKSTSGGTAALGCLVKDYFPEPVTVSWNSGALTSGVHTFPAVLQSSGLYSLSSVVTVPSSSLGTQTYICNVNHKPSNTKVDKKVEPKSCDKTHTCPPCPAPELLGGPSVFLFPPKPKDTLMISRTTEVTCVVVDVSHEDPEVKFNWYVDGVEVHNAKTKPREEQYNSTYRVVSVLQVLHQDWLNGKEYKCKVSNKALPAPIEKTISKAKGQPREPQVYTLPPSRDELTKNQVSLTCLVKGFYPSDIAVEWESNGQPENNYKTTPPVLDSDGSFFLYSKLTVDKSRWQQGNVFSCSVFHEALHYHYTQKSLSLSP
light: not shown
notes: copies: 2 + 2
B7 came in with a Kd in assay [3] of 25 nM.

B8: IgG1-F1019 (antibody, name in EU numbering)
heavy: QVQLQESGPGLVKPSETLSLTCAVSGHSISHDHAWSWVRQPPGEGLEWIGFISYSGITNYNPSLQGRVTISRDNSKNTLYLQMNSLRAEDTAVYYCARSLARTTAMDYWGEGTLVTVSSASTKGPSVFPLAPSSKSTSGGTAALGCLVKDYFPEPVTVSWNSGALTSGVHTFPAVLQSSGLYSLSSVVTVPSSSLGTQTYICNVNHKPSNTKVDKKVEPKSCDKTHTCPPCPAPELLGGDSVFLFPPKPKDVLYISRTPEVTCVVVDVSHEDPEVKFNWYVDGVEVHNAKTKPREEQYNSTYRVVSVLTVLHQDWLNGKEYKCKVSGKALPAPIEKTISKAKGQPREPQVYTLPPSRDELTKNQVSLTCLVKGFYPSDIAVEWESNGQPENNYKTTPPVLDSDGSFFLYSKLTVDKSRWQQGNVFSCSVMHEALHYHYTQKSLSLSP
light: not shown
On to B8, for which the dissociation constant Kd in assay [5] is 340 nM.

B9: F1189 (antibody, name in EU numbering)
heavy: QVQLQESGPGLVKPSETLSLTCAVSGHSISHDHAWSWVRQPPGEGLEWIGFISYSGITNYNPSLQGRVTISRDNSKNTLYLQMNSLRAEDTAVYYCARSLARTTAMDYWGEGTLVTVSSASTKGPSVFPLAPSSKSTSGGTAALGCLVKDYFPEPVTVSWNSGALTSGVHTFPAVLQSSGLYSLSSVVTVPSSSLGTQTYICNVNHKPSNTKVDKKVEPKSCDKTHTCPPCPAPELLGGPSVFLFPPKPKDTLYISRTPEVTCVVVDVSHEDPEVKFNWYVDGVEVHNAKTKPREEQYNSTYRVVSVLTVLHQDWLNGKEYKCKVSNKALPAPIEKTISKAKGQPREPQVYTLPPSRDELTKNQVSLTCLVKGFYPSDIAVEWESNGQPENNYKTTPPVLDSDGSFFLYSKLTVDKSRWQQGNVFSCSVMHEALDYHVTRKELSLSP
light: not shown
notes: copies: 2 + 2
Molecule B9 returned a Kd in assay [4] of 157 nM.

B10: IgG1-F1014 (antibody, name in EU numbering)
heavy: QVQLQESGPGLVKPSETLSLTCAVSGHSISHDHAWSWVRQPPGEGLEWIGFISYSGITNYNPSLQGRVTISRDNSKNTLYLQMNSLRAEDTAVYYCARSLARTTAMDYWGEGTLVTVSSASTKGPSVFPLAPSSKSTSGGTAALGCLVKDYFPEPVTVSWNSGALTSGVHTFPAVLQSSGLYSLSSVVTVPSSSLGTQTYICNVNHKPSNTKVDKKVEPKSCDKTHTCPPCPAPELRGGPKVFLFPPKPKDVLYISRTPEVTCVVVDVSHEDPEVKFNWYVDGVEVHNAKTKPREEQYNSTYRVVSVLQPLHADWLNGKEYKCKVSNKALPAPIEKTISKAKGQPREPQVYTLPPSRDELTKNQVSLTCLVKGFYPSDIAVEWESNGQPENNYKTTPPVLDSDGSFFLYSKLTVDKSRWQQGNVFSCSVMHEALHYHYTQKSLSLSP
light: not shown
In turn, B10 showed a Kd in assay [5] of 32 nM.

B11: F1192 (antibody, name in EU numbering)
heavy: QVQLQESGPGLVKPSETLSLTCAVSGHSISHDHAWSWVRQPPGEGLEWIGFISYSGITNYNPSLQGRVTISRDNSKNTLYLQMNSLRAEDTAVYYCARSLARTTAMDYWGEGTLVTVSSASTKGPSVFPLAPSSKSTSGGTAALGCLVKDYFPEPVTVSWNSGALTSGVHTFPAVLQSSGLYSLSSVVTVPSSSLGTQTYICNVNHKPSNTKVDKKVEPKSCDKTHTCPPCPAPELLGGPSVFLFPPKPKDTLYISRTPEVTCVVVDVSHEDPEVKFNWYVDGVEVHNAKTKPREEQYNSTYRVVSVLTVLHQDWLNGKEYKCKVSNKALPAPIEKTISKAKGQPREPQVYTLPPSRDELTKNQVSLTCLVKGFYPSDIAVEWESNGQPENNYKTTPPVLDSDGSFFLYSKLTVDKSRWQQGNVFSCSVMHEALHYHVGRKELSLSP
light: not shown
notes: copies: 2 + 2
The molecule B11 displayed an equilibrium dissociation constant (Kd) in assay [4] of 127 nM.

B12: IgG1-F1017 (antibody)
heavy: QVQLQESGPGLVKPSETLSLTCAVSGHSISHDHAWSWVRQPPGEGLEWIGFISYSGITNYNPSLQGRVTISRDNSKNTLYLQMNSLRAEDTAVYYCARSLARTTAMDYWGEGTLVTVSSASTKGPSVFPLAPSSKSTSGGTAALGCLVKDYFPEPVTVSWNSGALTSGVHTFPAVLQSSGLYSLSSVVTVPSSSLGTQTYICNVNHKPSNTKVDKKVEPKSCDKTHTCPPCPAPELRGGPKVFLFPPKPKDVLYISRTPEVTCVVVDVSHEDPEVKFNWYVDGVEVHEAKTKPREEQYNSTYRVVSVLQPLHADWLNGKEYKCKVSNKALPAPIEKTISKAKGQPREPQVYTLPPSRDELTKNQVSLTCLVKGFYPSDIAVEWESNGQPENNYKTTPPVLDSDGSFFLYSKLTVDKSRWQQGNVFSCSVMHEALHYHVTQKSLSLSP
light: not shown
B12 came in with an equilibrium dissociation constant (Kd) in assay [5] of 4.2 nM.
